Measurements from publication PMC12948223, “HSP70 Interactome‐Mediated Proteolysis Targeting Chimera (HSP70‐PROTAC) for Ferroptosis‐Driven Cancer Treatment” (Advanced Science, 2025).

Columns and labels:
[1] = molecular target: T1, heat shock cognate protein 70 (Hsc70), recombinant (human, UniProt P11142 1-646); assay: SPR; Biacore 8K; human Hsc70 immobilised on a CM5 chip; GPX4 without compound (binary complex); PBS pH 7.4 running buffer, 30 uL/min, 25 °C, 120 s association and 120 s dissociation; details: both partners purified
T1 construct: Hsc70 (HSPA8), human, bought recombinant protein; see the vendor's data sheet for HY-P73915A; also called HSPA8; heat shock cognate 70 protein; source: bought: MedChemExpress, #HY-P73915A (recombinant protein)

[2] = molecular target: T1, heat shock cognate protein 70 (Hsc70), …; assay: SPR; Biacore 8K; Hsc70 immobilised on a CM5 chip; GDAz-3 at 1 uM preincubated with GPX4 (ternary-complex measurement); PBS pH 7.4, 30 uL/min, 25 °C, 120 s association and 120 s dissociation; details: both partners purified

T1 sequence (P11142 whole entry): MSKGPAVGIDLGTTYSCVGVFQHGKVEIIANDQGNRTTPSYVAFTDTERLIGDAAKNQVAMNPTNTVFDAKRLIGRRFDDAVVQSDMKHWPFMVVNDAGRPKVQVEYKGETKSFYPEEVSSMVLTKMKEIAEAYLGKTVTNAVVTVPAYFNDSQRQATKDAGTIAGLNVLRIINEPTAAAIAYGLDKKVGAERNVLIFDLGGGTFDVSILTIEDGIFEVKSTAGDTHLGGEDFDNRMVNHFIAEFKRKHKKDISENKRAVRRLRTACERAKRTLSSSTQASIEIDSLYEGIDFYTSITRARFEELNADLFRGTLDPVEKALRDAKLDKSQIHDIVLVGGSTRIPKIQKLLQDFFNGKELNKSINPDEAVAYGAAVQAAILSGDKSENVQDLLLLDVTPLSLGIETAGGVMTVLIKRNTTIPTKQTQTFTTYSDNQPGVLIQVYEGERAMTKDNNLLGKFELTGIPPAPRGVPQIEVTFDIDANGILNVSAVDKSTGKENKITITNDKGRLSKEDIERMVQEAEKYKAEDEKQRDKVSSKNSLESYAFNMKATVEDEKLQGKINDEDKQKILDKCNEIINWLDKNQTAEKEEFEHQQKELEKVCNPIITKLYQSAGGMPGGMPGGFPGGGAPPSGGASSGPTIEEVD

Kd [1]: 100 nM
KD with GDAz-3 [2]: 23.9 nM
B1: glutathione peroxidase 4 (GPX4), recombinant (enzyme)
chain: MCASRDDWRCARSMHEFSAKDIDGHMVNLDKYRGFVCIVTNVASQUGKTEVNYTQLVDLHARYAECGLRILAFPCNQFGKQEPGSNEEIKEFAAGYNVKFDMFSKICVNGDDAHPLWKWMKIQPKGKGILGNAIKWNFTKFLIDKNGCVVKRYGPMEEPLVIEKDLPHYF
modifications: Limits are by convention: cytosolic isoform, starting at precursor Met28 (paper numbering + 27, so Sec46 = U73; matches the start of 6HKQ). The commercial protein's limits and tag are not stated. …
